In patent US20130270124, “BIOSENSOR ELECTRODE FOR HER2 DETECTION, A METHOD FOR PRODUCING IT, A METHOD FOR REGENERATING IT” (RESEARCH & BUSINESS FOUNDATION SUNGKYUNKWAN UNIVERSITY, published 2013):

Experiments:
[1] = biological target: Bovine serum albumin (BSA) (Bos taurus, UniProt P02769 P02769:25-607); experiment: impedance; 20 ug/ml BSA in PBS, 30 min, Ret unchanged; conditions: tags: Sigma-Aldrich; label: 5'-amine, amide-coupled to MPA on gold electrode
Procedure: (§1) A conventional three-electrode cell was used for performing electrochemical impedance spectroscopy (EIS). Ag/AgCl and a platinum (Pt) plate were respectively used as a reference electrode and an opposite electrode. In every modification and detection stage, an operating electrode was detected by EIS in a 2 mM Fe(CN)6^{3-/4-}(1:1)/PBS solution. An amplitude-sine wave of about 10 mV was applied in a frequency range of about 0.1 Hz to 100 kHz.
EIS data was measured to investigate specificities of the aptamer with respect to other proteins existing blood, such as BSA and IgG. The EIS data of the aptamer-attached electrode was measured (block line), and then the aptamer-attached electrode was immersed in 20 μg/ml concentrations of BSA solution and IgG solution each for 30 minutes. […] Then, when the aptamer-attached electrode was immersed in a solution in which 30 ng/ml HER2 was added to a 20 μg/ml BSA/IgG solution for 30 minutes, the Rₑₜ value increased.

HER2 (ErbB2) = HER2 (ErbB2) (UniProt P04626 P04626:23-652); experiment: electrochemical impedance on Au/MPA/aptamer electrode; dRet linear 5-50 ng/ml (y=18.97x+160.2, R2=0.99882), saturates 50-500 ng/ml; PBS, 30 min; conditions: tags: R&D Systems; label: 5'-amine, amide-coupled to MPA on gold electrode
Procedure: as §1
After immobilization of the NH₂-ssDNA, the modified gold electrode was incubated in a series of HER2/PBS solutions of different concentrations for 30 minutes each, and then washed with DI water. A series of HER2/PBS solutions of 5 ng/ml to 500 ng/ml concentrations were fabricated in order to confirm a range of soluble concentration.
After the aptamer (NH₂-ssDNA) was immobilized, the modified gold electrode was incubated in a series of HER2/PBS solutions of a range 5.0 to 50 ngmL⁻¹. The modified gold electrode was detected by EIS after each incubation. The difference of electron-transfer resistance ΔRₑₜ between the aptamer-modified gold electrode and the HER2-incubated gold electrode was obtained from a signal formed by a reaction between the immobilized aptamer and the HER2.

Bovine serum albumin (BSA), sequence (P02769 25-607, one chain of several): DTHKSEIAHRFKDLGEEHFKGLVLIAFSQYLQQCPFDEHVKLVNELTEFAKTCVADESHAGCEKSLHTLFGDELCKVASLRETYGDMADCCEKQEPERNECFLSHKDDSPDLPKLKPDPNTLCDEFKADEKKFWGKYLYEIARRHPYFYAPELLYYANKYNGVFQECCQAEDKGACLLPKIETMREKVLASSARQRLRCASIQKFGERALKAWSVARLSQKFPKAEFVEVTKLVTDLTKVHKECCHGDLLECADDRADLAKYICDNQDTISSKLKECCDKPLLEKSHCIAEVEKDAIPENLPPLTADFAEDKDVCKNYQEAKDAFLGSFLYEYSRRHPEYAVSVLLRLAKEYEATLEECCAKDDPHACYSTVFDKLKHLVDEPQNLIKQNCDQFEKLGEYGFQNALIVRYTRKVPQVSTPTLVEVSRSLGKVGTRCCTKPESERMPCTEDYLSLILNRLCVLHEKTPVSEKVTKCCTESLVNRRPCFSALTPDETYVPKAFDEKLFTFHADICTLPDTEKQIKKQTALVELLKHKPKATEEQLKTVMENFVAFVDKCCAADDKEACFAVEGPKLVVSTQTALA

B1: HER2 NH2-aptamer (ssDNA)
DNA: CTTCTGCCCGCCTCCTTCCTGGGGCCTGGATACGGATTGGTAAGGATTAGTAGGGGGCATAGCTGGAGACGAGATAGGCGGACACT
modifications: 5'-amino modifier C6
B1: no binding [1]; binds (HER2 (ErbB2)).
